# Patent EP0574512B1
# Key:
# [1] = biological target: HIV-1 envelope gp120/gp41 complex (HIV-1); assay: cell-based or functional assay
# [2] = biological target: MHC class II antigen on the Raji B cell line; assay: cell-based or functional assay
substance,measurement,setting,value
CD4:ζ chimeric receptor,mean effector to target ratio for 50% release (51Cr release cytolysis by CTL) (effector to target ratio),[1],1.9
same,cytolysis (51Cr release),[2],5 % cytolysis
